Test results taken from PMC9129000, “RADA-dependent branch migration has a predominant role in plant mitochondria and its defect leads to mtDNA instability and cell cycle arrest”.

Assays:
[1] = biological target: Arabidopsis RADA recombinant protein (His-tagged, WT) (Arabidopsis thaliana); assay: dynamic light scattering; protein fraction of gel filtration peak 2 (the smaller oligomer)
[2] = biological target: T1, RADA (Arabidopsis thaliana, UniProt F4K8X8 49-627); assay: competition; competes as efficiently as homologous 30-mer; 20 mM Tris-HCl pH 7.5, 50 mM KCl, 5 mM MgCl2, 0.5 mM EDTA, 10% glycerol, 1 mM DTT, protease inhibitors; 20 C, 20 min; 8 or 4.5% PAGE in TBE at 4 C; settings: protein: recombinant; tags: N-terminal His (pET28a); chain copies: 6; single strand
T1 sequence: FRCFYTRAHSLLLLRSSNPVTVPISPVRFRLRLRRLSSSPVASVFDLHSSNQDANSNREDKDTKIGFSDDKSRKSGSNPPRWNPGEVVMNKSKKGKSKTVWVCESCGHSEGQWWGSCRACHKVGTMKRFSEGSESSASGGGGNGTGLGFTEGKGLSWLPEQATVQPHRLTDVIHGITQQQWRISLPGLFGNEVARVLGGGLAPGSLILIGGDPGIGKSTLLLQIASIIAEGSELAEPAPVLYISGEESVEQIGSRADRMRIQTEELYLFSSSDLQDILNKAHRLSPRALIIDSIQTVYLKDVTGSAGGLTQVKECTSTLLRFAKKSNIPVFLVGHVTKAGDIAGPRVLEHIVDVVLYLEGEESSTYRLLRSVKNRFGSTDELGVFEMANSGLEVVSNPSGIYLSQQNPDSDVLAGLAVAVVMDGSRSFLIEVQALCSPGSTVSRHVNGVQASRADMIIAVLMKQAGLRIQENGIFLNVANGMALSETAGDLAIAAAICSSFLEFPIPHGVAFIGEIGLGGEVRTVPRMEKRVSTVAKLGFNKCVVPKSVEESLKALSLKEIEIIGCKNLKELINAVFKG

[3] = biological target: T1, RADA; assay: EMSA; 20 mM Tris-HCl pH 7.5, 50 mM KCl, 5 mM MgCl2, 0.5 mM EDTA, 10% glycerol, 1 mM DTT, protease inhibitors; 20 C, 20 min; 8 or 4.5% PAGE in TBE at 4 C; settings: protein: recombinant; tags: N-terminal His (pET28a); chain copies: 6; label: 5'-32P; single strand
[4] = biological target: T1, RADA; assay: EMSA; probe and homologous competitor; 20 mM Tris-HCl pH 7.5, 50 mM KCl, 5 mM MgCl2, 0.5 mM EDTA, 10% glycerol, 1 mM DTT, protease inhibitors; 20 C, 20 min; 8 or 4.5% PAGE in TBE at 4 C; settings: protein: recombinant; tags: N-terminal His (pET28a); chain copies: 6; label: 5'-32P as probe; single strand

**Q.** With “Arabidopsis RADA recombinant protein (His-tagged, WT) (enzyme)” as the molecule, how does the stoichiometry N [1] read?
**A.** 6

**Q.** Does TTTTTTTTTTTTTTTTTTTTTTTTTTTTTT (ssDNA) [poly-dT 30-mer] bind [2]?
**A.** binds

B1: EMSA ssDNA (ssDNA)
DNA: GACGCTGCCGAATTCTACCAGTGCCTTGCTAGGACATCTTTGCCCACCTGCAGGTTCACCC
**Q.** Does B1 bind [3]?
**A.** binds

**Q.** Does AGTCAGTCAGTCAGTCAGTCAGTCAGTCAG (ssDNA) [EMSA 30-mer 7x[AGTC]AG] bind [4]?
**A.** binds
